Data set [1] relates to LS2A R3M1 (Ab0786). Put plainly: BLI binding of LS2B variants to LS2A R3M1 (Ab0786) with indinavir. On the procedure: Binding kinetics were measured by biolayer interferometry (BLI). Biotinylated-Ab0785 (LS2A R2M34 Fab) or biotinylated-Ab0786 (LS2A R3M1 Fab) was captured by streptavidin biosensors and binding to Ab1071 (LS2B R5M2 Fab), Ab1072 (LS2B R7M1 Fab), and Ab1073 (LS2B R7M2 Fab) was measured in the presence of […].
In R6 of engineering, alanine scanning of clone R4M16 were performed to find improved binding to LS2A R3M2 (Ab0787) and LS2A R3M1 (Ab0786). Variants were screened for binding to LS2A (Ab0223) and LS2A R3M2 (Ab0787) with a single-point kinetic screen.
In R7, combination mutants from R6 were designed to generate further affinity variants. Variants were screened for binding to LS2A Ab0787 and Ab0786 with a single-point kinetic screen. Five-point kinetics was measured for a subset of molecules.
(§1) Bio-layer interferometry (BLI) data were measured using an Octet RED384 (ForteBio) instrument. Antigens of interest were immobilized on an AHC biosensor and loaded until a 0.4-0.6-nm signal was achieved. Purified antibodies were used as the analyte premixed with 10 μM Indinavir or 0.05% DMSO vehicle. PBSTB (PBS, pH 7.4, 0.05% Tween-20, 0.2% BSA) was used for all buffers for BLI. Data were analyzed using ForteBio Octet analysis software and kinetic parameters were determined using a 1:1 monovalent binding model.
Background: Biolayer interferometry detects binding as a change in optical thickness at a sensor tip.

The test system of data set [2] is Ag0067 (LS2A R2M9). The experiment in a line: BLI LITE Switch indinavir washout/reversibility kinetics. The data set is classed as binding. Here is the method: Binding was measured by biolayer interferometry (BLI). Biotinylated-Ag0067 (LS2A R2M9) was captured on streptavidin biosensors. Binding of 50 nM Ab1073 (LS2B R7M2) to Ag0067 was allowed to reach steady-state in the presence of 1 μM IDV. Complex dissociation was subsequently performed for 2 hours in buffer containing (1) 50 nM Ab1073 and 1 μM IDV, (2) 50 nM Ab1073 and vehicle (washout), and (3) vehicle only. […] In 2 hours of IDV washout, the LITE Switch dissociated to nearly 0% complex, whereas complete complex dissociation was observed within 10 min upon removal of both Ab1073 and IDV.
LITE Switch indinivir (IDV) washout/reversibility kinetics (FIG. 21) were measured by biolayer interferometry (BLI) on an Octet® Qke (Sartorius) instrument. Biotinylated scFv-Fc Ag67, in the presence of 1 μM IDV or 0.05% DMSO vehicle, was immobilized on streptavidin biosensors and loaded to a signal of 1.2-1.8 nm. After loading, biosensors were blocked with 10 μM biotin containing 1 μM IDV or vehicle. […] Data were analyzed using ForteBio Data Analysis HT software version 12.0.2.59. Dissociation constants were determined using a 1:1 monovalent binding model, local fitting, and with dissociation baseline to zero. Data were additionally analyzed using GraphPad Prism 9 software version 9.1.2 (225) with a one-phase exponential decay nonlinear regression model. […]

The nature of data set [3]: Differential scanning fluorimetry (DSF) melting temperature. Format: physicochemical. Here is the method:
DSF was performed on a LC480 Lightcycler Instrument II (Roche). Purified recombinant protein was diluted to 5 μM in DSF buffer (PBS, pH 7.4, Sypro Orange 5×) with small molecule (10 μM VTX) or vehicle (0.05% DMSO) and then heated with a temperature gradient (0.01° C./s) from 25 to 95° C. Data were continuously acquired at ˜465 nm (excitation) and ˜580 nm (emission). Data was analyzed to generate first derivative curves in which the curve maximum was reported as the melting temperature of the protein.

Data set [4] addresses Ab0902 (LS2B R5M2). The experiment in a line: BLI indinavir-dependent binding of LS2A Ab0223 to LS2B Ab0902. On the procedure: Binding was measured by biolayer interferometry (BLI). Ab0902 (LS2B R5M2) was captured by anti-hIgG Fc capture (AHC) biosensors and kinetics was measured to Ab0223 (LS2A humanized parent) in the presence of […].
A series of biophysical experiments was conducted to further elucidate a mechanism for Indinavir switch assembly. Biolayer interferometry experiments were performed to measure LS2A and LS21B assembly in the presence and absence of saturating concentrations of Indinavir. […] A BLI kinetics assay was performed to assess the reversibility kinetics of the LS2A/LS2B complex upon Indinavir washout.
as §1

A short description of data set [5]: SPR binding of free indinavir to LS2A clones. The conditions noted are these: read-out: Affinity to free Indinavir by SPR. Here is the method:
Detailed methods are described in the methods section. […] A 3-fold serial dilution of indinavir was injected over sensor chip and binding was measured using single-cycle kinetics. The data was double reference subtracted and fit to a 1:1 Langmuir kinetic model.
All assays were performed at 25° C. in 1×PBS-P+ buffer made from a 10× buffer stock (Cytiva 28995084). […] For Ab0759, a single-cycle kinetics experiment was performed with five sequential injections of 3-fold serial diluted (37, 111, 333, 1000, 3000 nM) indinavir at 30 μL/min for 240 seconds each and dissociation was monitored for 600 seconds. […] The data was double referenced subtracted to the reference lane and five sequential injections of 0 nM indinavir. The kinetic data was fit to a 1:1 Langmuir model to determine the association and dissociation rate constants.
A general note: SPR reads the build-up and loss of mass on a sensor chip optically.

“Also recorded” adds a separate entry of the source.

Four molecules from patent publication US20240190987A1, “Engineered EpCam Binding Antibodies” (TigaTX, priority 2021, published 2024) can be followed below.

B1: Ab1073: LS2B R7M2 Fab (antibody, V domains shown)
VH: EVQLVESGGGLVQPGGSLRLSCAASGFDFSSYSIHWVRQAPGKGLEWVAAISPYYGSTYYADSVKGRFTISADTSKNTAYLQMNSLRAEDTAVYYCARYYEYYKYDLYAGSLGFDYWGQGTLVTVSS
VL: DIQMTQSPSSLSASVGDRVTITCRASQSVSSAVAWYQQKPGKAPKLLIYSASSLYSGVPSRFSGSRSGTDFTLTISSLQPEDFATYYCQQGGYSLITFGQGTKVEIK
With B1, the “binding to LS2A clones (FIG. 17)” value in data set [1] (biotinylated Ab0785 (R2M34) or Ab0786 (R3M1) captured, indinavir present) is listed as “improved affinities”. For the same molecule, the “LITE Switch reversibility at constant Ab1073 and IDV” value in data set [2] (50 nM Ab1073 and 1 μM IDV) was “no LITE Switch reversibility was observed”. For the same molecule, in data set [2] (2 hours, 50 nM Ab1073 and vehicle), the “complex remaining after IDV washout” value is around 0%.

B2: Ab1045: LS2B; HC: S50A+W98Y on Ab0902 (antibody, V domains shown)
VH: B1 VH
VL: B1 VL
B2: in data set [3] (Table 15), the “TM (° C.)” value was 77.7 °C. In addition, the Kd in data set [1] (five-point kinetics, values equal Table 15 column LS2A Ab0786) was 40 nM.

B3: Ab0223: LS2A humanized parent (antibody, V domains shown)
VH: QVQLVQSGAEVKKPGASVKVSCKASGYTFTSYWMHWVRQAPGQGLEWMGIIHPNSGGTSYAQKFQGRVTMTRDTSTSTVYMELSSLRSEDTAVYYCAMGDYVSRDYWGQGTLVTVSS
VL: EIVLTQSPGTLSLSPGERATLSCRASSSVSSSYLHWYQQKPGQAPRLLIYSTSSRATGIPDRFSGSGSGTDFTLTISRLEPEDFAVYYCQQYSGYLFTFGQGTKLEIK
With B3, the Kd in data set [4] (in the presence of 10 μM IDV, read-out: affinity for binding to Ab0902) stood at 1.6 nM. In addition, the “binding to Ab0902 in the absence of Indinavir” value in data set [4] (no indinavir) was “no binding was detected; also recorded: no detectable interaction”.

B4: Ab0899: humanized LS2A R3M1 (protein)
scFv: QVQLVQSGAEVKKPGASVKVSCKASGYTFTSYWMHWVRQHPGQGLEWMGMIHPNSGGTNYAQKFQGRVTMTRDTSTSTVYMELSSLRSEDTAVYYCAMGDYVSRDYWGQGTLVTVSSGGGGSGGGGSGGGGSEIVLTQSPGTLSLSPGERATLSCRASSSVSSSYLHWYQQKPGQAPRLLIYSTSSRATGIPDRFSGSGSGTDFTLTISRLEPEDFAVYYCQQYSGYQFTFGQGTKLEIK
modifications: left off: a dimerising Fc or GST; small tags and cut ends
notes: humanized LS2A R3M1
Regarding B4, the “TM (° C.)” value in data set [3] (scFv-Fc format, LS2A R3 (Table 20)) came out at 56.1 °C. In addition, the Kd in data set [5] was 4.6 nM.
